B1: SPIN (Staphylococcal Peroxidase INhibitor) from S. aureus strain Newman (natural protein)
chain: KVYSQNGLVLHDDANFLEHELSYIDVLLDKNADQATKDNLRSYFADKGLHSIKDIINKAKQDGFDVSKYEHVK

target: Native human myeloperoxidase (MPO) isolated from purulent sputum (human) (UniProt P05164); assay: SPR
Chain of UniProt P05164 (P05164 165-745): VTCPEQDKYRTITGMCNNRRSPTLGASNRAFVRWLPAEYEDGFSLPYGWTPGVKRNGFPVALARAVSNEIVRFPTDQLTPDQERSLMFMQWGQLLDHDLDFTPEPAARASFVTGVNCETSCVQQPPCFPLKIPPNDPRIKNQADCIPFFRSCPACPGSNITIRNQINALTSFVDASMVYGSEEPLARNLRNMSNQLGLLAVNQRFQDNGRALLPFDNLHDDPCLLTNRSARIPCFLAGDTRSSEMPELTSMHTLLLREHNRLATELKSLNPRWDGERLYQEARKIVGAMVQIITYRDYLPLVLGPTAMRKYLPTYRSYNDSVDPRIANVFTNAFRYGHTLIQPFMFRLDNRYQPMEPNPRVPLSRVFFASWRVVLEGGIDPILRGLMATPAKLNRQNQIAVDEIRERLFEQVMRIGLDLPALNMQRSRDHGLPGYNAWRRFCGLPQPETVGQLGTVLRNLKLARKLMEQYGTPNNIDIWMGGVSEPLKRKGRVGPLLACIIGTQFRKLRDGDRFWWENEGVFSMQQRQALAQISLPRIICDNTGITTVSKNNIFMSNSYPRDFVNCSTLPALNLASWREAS

“SPIN-delphini (SPIN from Staphylococcus delphini) (natural protein)” and “SPIN-schleiferi (SPIN homolog from S. schleiferi) (natural protein)” are within 1.5-fold of each other in Kd: 310 nM for the first, 230 nM for the second.

First: SPIN-agnetis (SPIN homolog from S. agnetis) (natural protein)
Second: SPIN-intermedius (SPIN homolog from S. intermedius) (natural protein)
The Kd of the first is 24-fold lower: 41.8 nM for the first, 984 nM for the second. The first binds more tightly here.

B1 gave a Kd of 15.9 nM.

“SPIN-delphini (SPIN from Staphylococcus delphini) (natural protein)” and “SPIN-schleiferi (SPIN homolog from S. schleiferi) (natural protein)” are within 1.5-fold of each other in koff: 0.00334 s⁻¹ for the first, 0.00252 s⁻¹ for the second.

“SPIN-agnetis (SPIN homolog from S. agnetis) (natural protein)” and “SPIN-intermedius (SPIN homolog from S. intermedius) (natural protein)” are within 1.5-fold of each other in koff: 0.00236 s⁻¹ for the first, 0.00334 s⁻¹ for the second.

B1 was tested, and the koff was 0.00316 s⁻¹.

“SPIN-delphini (SPIN from Staphylococcus delphini) (natural protein)” and “SPIN-schleiferi (SPIN homolog from S. schleiferi) (natural protein)” are within 1.5-fold of each other in kon: 10800 M⁻¹ s⁻¹ for the first, 11200 M⁻¹ s⁻¹ for the second.

Compared with “SPIN-agnetis (SPIN homolog from S. agnetis) (natural protein)”, “SPIN-intermedius (SPIN homolog from S. intermedius) (natural protein)” is 16-fold lower in kon: 56400 M⁻¹ s⁻¹ for the first, 3500 M⁻¹ s⁻¹ for the second.

B1 showed a kon of 201000 M⁻¹ s⁻¹.

— PMC5899673
